According to patent publication US20160311912A1 (RINAT NEUROSCIENCE, published 2016):

Legend:
[1] = target: T1, Cynomolgus monkey (cyno) glucagon receptor extracellular domain human Fc fusion protein (cynomolgus monkey); assay: SPR (Biacore T200), receptor-Fc captured on anti-human Fc chip, mAb5 Fab as analyte, 25° C.
T1 construct: extracellular domain
Experimental: (§1) An anti-human Fc sensor chip was prepared by activating all flow cells of a Biacore CM4 sensor chip with a 1:1 (v/v) mixture of 400 mM EDC and 100 mM NHS for 7 minutes, at a flow rate of 10 μL/min. Goat anti-human Fc antibody (Southern Biotech) was diluted to 50 μg/mL in 10 mM sodium acetate pH 5.0 and injected on all flow cells for 7 minutes at 20 μL/min. All flow cells were blocked with 100 mM ethylenediamine in 150 mM borate buffer pH 8.5 for 7 minutes at 10 μL/min. The running buffer for this immobilization procedure was 10 mM HEPES, 150 mM NaCl, 0.05% (v/v) TWEEN® 20, pH 7.4.
(§2) The following kinetics experiments were performed at 25° C. and 37° C. using a running buffer of 10 mM HEPES, 150 mM NaCl, 0.05% (v/v) TWEEN® 20, pH 7.4, 1 mg/mL BSA.
(§3) All experiments were performed on a Biacore™ T200 surface Plasmon resonance biosensor (GE Lifesciences, Piscataway N.J.). Human and cynomolgus monkey (cyno) glucagon receptor extracellular domain human Fc fusion proteins were captured onto downstream flow cells (flow cells 2, 3, respectively) at 2 μg/mL at a flow rate of 10 μL/min for 3 minutes. Flow cell 1 was used as a blank reference surface. Following capture of glucagon receptor Fc fusion proteins, analyte (buffer, or mAb5 Fab) was injected at 30 μL/min on all flow cells for two minutes. Multiple mAb5 Fab analyte concentrations were tested. The mAb5 Fab analyte concentrations were 0.16, 0.8, 4, 20 and 100 nM. After the analyte injection, dissociation was monitored for 10 minutes (for the 20 nM and 100 nM mAb5 Fab analyte samples) or 30 seconds (for the 0.16, 0.8, and 4 nM mAb5 Fab analyte samples). Dissociation was monitored for 30 seconds and 10 minutes for buffer analyte cycles. Following analyte binding and dissociation all flow cells were regenerated with four 1-minute injections of 75 mM phosphoric acid. The sensorgram data were double referenced prior to curve fitting (double referencing as described in Myszka, D. G., 1999, J. Mol. Recognit., 12:279-284. The double referenced sensorgrams were fit globally to a simple 1:1 Langmuir with mass transport binding model using the Biacore™ T200 evaluation software. The binding affinity data for anti-glucagon receptor antagonist antibody mAb5 binding to human and cyno glucagon receptor are shown below in Table 4.

[2] = target: T2, Human glucagon receptor extracellular domain human Fc fusion protein (human, UniProt P47871 26-136, limits assumed); assay: as above
T2 construct: also called glucagon receptor Fc fusion protein; not shown: human Fc
T2 sequence (P47871 26-136 limits assumed): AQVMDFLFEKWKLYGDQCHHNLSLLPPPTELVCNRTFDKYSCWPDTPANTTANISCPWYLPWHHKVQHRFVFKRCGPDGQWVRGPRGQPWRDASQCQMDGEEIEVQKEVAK
Experimental: as §1, §2, §3

[3] = target: T1, Cynomolgus monkey (cyno) glucagon …; assay: SPR (Biacore T200), receptor-Fc captured on anti-human Fc chip, mAb5 Fab as analyte, 25° C.; dissociation too slow, limit reported
Experimental: as §1, §2
(§4) All experiments were performed on a Biacore™ T200 surface Plasmon resonance biosensor (GE Lifesciences, Piscataway N.J.). Human and cynomolgus monkey (cyno) glucagon receptor extracellular domain human Fc fusion proteins were captured onto downstream flow cells (flow cells 2, 3, respectively) at 2 μg/mL at a flow rate of 10 μL/min for 3 minutes. […] After the analyte injection, dissociation was monitored for 10 minutes (for the 20 nM and 100 nM mAb5 Fab analyte samples) or 30 seconds (for the 0.16, 0.8, and 4 nM mAb5 Fab analyte samples). Dissociation was monitored for 30 seconds and 10 minutes for buffer analyte cycles. […]

[4] = target: T1, Cynomolgus monkey (cyno) glucagon …; assay: SPR (Biacore T200), receptor-Fc captured on anti-human Fc chip, mAb5 Fab as analyte, 25° C.; limit reported
Experimental: as §1, §2, §4

[5] = target: T1, Cynomolgus monkey (cyno) glucagon …; assay: SPR (Biacore T200), receptor-Fc captured on anti-human Fc chip, mAb5 Fab as analyte, 37° C.
Experimental: as §1, §2, §3

[6] = target: T2, Human glucagon receptor extracellular …; assay: as above
Experimental: as §1, §2, §3

- kon [1]: 500000 M⁻¹ s⁻¹
- Kd [2]: 0.22 nM
- koff [2]: 0.0001 s⁻¹
- kon [2]: 460000 M⁻¹ s⁻¹
- t1/2 [2]: 116 min
- koff [3]: < 8.5e-05 s⁻¹
- Kd [4]: < 0.17 nM
- t1/2 [4]: > 136 min
- Kd [5]: 0.72 nM
- koff [5]: 0.00054 s⁻¹
- kon [5]: 750000 M⁻¹ s⁻¹
- t1/2 [5]: 21 min
- Kd [6]: 0.75 nM
- koff [6]: 0.00049 s⁻¹
- kon [6]: 650000 M⁻¹ s⁻¹
- t1/2 [6]: 24 min
B1: mAb5 Fab (Fab, V domains shown)
VH: QVQLVQSGAEVKKPGASVKVSCKASGYTFTDFSVHWVRQAPGQGLEWMGWINTETDETSYADDFKGRVTMTRDTSTSTVYMELSSLRSEDTAVYYCVKSRYWSYGPPDYWGQGTTVTVSS
VL: DIQMTQSPSSLSASVGDRVTITCQASQNIRTAVVWYQQKPGKAPKLLIYLASNRHSGVPSRFSGSGSGTDFTFTISSLQPEDIATYYCLQHWTYPFTFGGGTKVEIK
notes: also called Fab of anti-glucagon receptor antagonist antibody mAb5
